Measurements reported in paper PMC3852661, “Structural basis of SUFU–GLI interaction in human Hedgehog signalling regulation” (Acta Crystallographica Section D: Biological Crystallography, 2013).
Where no end group is shown, it is not given here. The star is where a group is joined. 5FAM = O=C1OC2(c3ccc(O)cc3Oc3cc(O)ccc32)c2ccc(C(=O)*)cc21

T1: MBP_(A216H_K220H)-SUFU-Δ_(W61D_L62S_G63F_P453A_Δ454–456_K457A) (human, UniProt Q9UMX1 32-278; Q9UMX1 361-483, W61D | L62S | G63F | P453A | Δ454–456 | K457A)
T1 construct: human SUFU, residues 32-278, WLG61-63 mutated to DSF; heptamer that replaces amino acids 279-360 (the IDR), as in MBP-SUFU-Δ; human SUFU, residues 361-483, a flexible loop shortened; Derived from MBP-SUFU-Δ; residues 216 and 220 of the MBP moiety mutated to histidine; crystallised with zinc acetate and maltose; source: E. coli JM109 (DE3), purified (HisTrap, SEC); not shown: MBP (A216H, K220H), …
T1 sequence: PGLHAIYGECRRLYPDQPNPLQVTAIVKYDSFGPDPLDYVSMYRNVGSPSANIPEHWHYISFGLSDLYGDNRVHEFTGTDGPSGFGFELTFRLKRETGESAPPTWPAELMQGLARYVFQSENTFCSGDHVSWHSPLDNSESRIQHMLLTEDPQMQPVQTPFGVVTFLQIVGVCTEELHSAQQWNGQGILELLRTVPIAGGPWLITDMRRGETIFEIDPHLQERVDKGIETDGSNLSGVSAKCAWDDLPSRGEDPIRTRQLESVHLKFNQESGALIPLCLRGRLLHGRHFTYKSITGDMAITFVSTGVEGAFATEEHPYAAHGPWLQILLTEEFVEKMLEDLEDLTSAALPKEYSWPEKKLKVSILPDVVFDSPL

B1: MBP-SUFU-FL (domain or fragment, human, UniProt Q9UMX1 32-483, looked up)
chain: PGLHAIYGECRRLYPDQPNPLQVTAIVKYWLGGPDPLDYVSMYRNVGSPSANIPEHWHYISFGLSDLYGDNRVHEFTGTDGPSGFGFELTFRLKRETGESAPPTWPAELMQGLARYVFQSENTFCSGDHVSWHSPLDNSESRIQHMLLTEDPQMQPVQTPFGVVTFLQIVGVCTEELHSAQQWNGQGILELLRTVPIAGGPWLITDMRRGETIFEIDPHLQERVDKGIETDGSNLSGVSAKCAWDDLSRPPEDDEDSRSICIGTQPRRLSGKDTEQIRETLRRGLEINSKPVLPPINPQRQNGLAHDRAPSRKDSLESDSSTAIIPHELIRTRQLESVHLKFNQESGALIPLCLRGRLLHGRHFTYKSITGDMAITFVSTGVEGAFATEEHPYAAHGPWLQILLTEEFVEKMLEDLEDLTSPEEFKLPKEYSWPEKKLKVSILPDVVFDSPL
notes: human SUFU (Suppressor of fused), residues 32-483, called essentially full length; MBP is joined to SUFU by a three-alanine linker; vector pLJMBP4c (Monné et al., 2008); also called SUFU_(32–483); source: E. coli JM109 (DE3), purified (HisTrap, SEC); not shown: MBP, N-terminal, kept
B2: MBP-SUFU-Δ (domain or fragment, human)
chain: PGLHAIYGECRRLYPDQPNPLQVTAIVKYWLGGPDPLDYVSMYRNVGSPSANIPEHWHYISFGLSDLYGDNRVHEFTGTDGPSGFGFELTFRLKRETGESAPPTWPAELMQGLARYVFQSENTFCSGDHVSWHSPLDNSESRIQHMLLTEDPQMQPVQTPFGVVTFLQIVGVCTEELHSAQQWNGQGILELLRTVPIAGGPWLITDMRRGETIFEIDPHLQERVDKGIETDGSNLSGVSAKCAWDDLPSRGEDPIRTRQLESVHLKFNQESGALIPLCLRGRLLHGRHFTYKSITGDMAITFVSTGVEGAFATEEHPYAAHGPWLQILLTEEFVEKMLEDLEDLTSPEEFKLPKEYSWPEKKLKVSILPDVVFDSPL
notes: human SUFU, residues 32-278; heptamer that replaces amino acids 279-360 (the IDR); human SUFU, residues 361-483; Same frame as MBP-SUFU-FL (three-alanine linker after MBP); source: E. coli JM109 (DE3), purified (HisTrap, SEC); not shown: MBP, N-terminal, kept
B3: FAM-GLI1p (peptide, UniProt P08151 115-131, looked up)
peptide: 5FAM-TSPGGSYGHLSIGTMSP
notes: human GLI1, residues 115-131; also called 5-FAM-labelled peptide; FAM-labelled GLI1p peptide; source: synthetic peptide (Pepceuticals Ltd)
B4: GLI1p (peptide, UniProt P08151 115-131, looked up)
peptide: TSPGGSYGHLSIGTMSP
notes: human GLI1, residues 115-131, holds the SYGH motif; also called human GLI1-derived peptide; source: synthetic peptide (Dr W. Mawby, University of Bristol)

What was measured:
Conditions in all cases: both partners purified
GLI1p = target: B4; assay: thermal stability assay (SYPRO Orange); 2.2 µM MBP-SUFU protein with 44 µM peptide; 50 mM Na HEPES pH 7.0, 50 mM NaCl, 5 mM β-mercaptoethanol; heated from 20 to 90°C; triplicate
MBP-SUFU-FL [1] = target: B1; assay: MST; 50 nM FAM-GLI1p, MBP-SUFU constructs titrated (14.2–29 070 and 54–110 500 nM); 50 mM Tris–HCl pH 7.6, 150 mM NaCl, 10 mM MgCl2, 0.05% Tween-20; three independent measurements
[2] = target: T1, MBP_(A216H_K220H)-SUFU-Δ_(W61D_L62S_G63F …); assay: crystal structure; co-crystals of the MBP-SUFU-Δ variant with zinc acetate (1:1) and GLI1p or GLI3p (1:4); hanging drop, 4°C, PEG 3350, sodium formate
MBP-SUFU-FL [3] = target: B1; assay: HDX-MS; MBP-SUFU-FL with a 5.5-fold excess of GLI3p, incubated 1 h; exchange 300, 600 and 1800 s at 4°C; 50 mM Na HEPES pH 7.0, 50 mM NaCl, 5 mM β-mercaptoethanol, 1.5 mM maltose

With B1 as the binder, how does the “Tm shift on addition of GLI1p” value (GLI1p) read?
The value was 4 °C.

For B2, which “Tm shift on addition of GLI1p” value (GLI1p) is on record?
Its value is 3.6 °C.

Does B3 bind (MBP-SUFU-FL [1])?
Result: binds

Does B4 bind [2]?
Result: binds

Does SSASGSYGHLSASAISP (peptide, UniProt P10071 328-344, looked up, human GLI3, residues 328-344) [GLI3p] bind (MBP-SUFU-FL [3])?
Result: binds

Does SSASGSYGHLSASAISP (peptide, UniProt P10071 328-344, looked up, human GLI3, residues 328-344) [GLI3p] bind [2]?
Result: binds
